Measured values from US20060205646A1.

Target: MMPs in infected porcine wound fluid
Assay: cell-based or functional assay

Substance: γ-D-crystallin (from UniProt P07320 2-174)
- inhibition of MMP activity (Fluorogenic Peptide Substrate I), 0.4 mg/mL γ-D-crystallin: 50%
